Reference: US7008780, “Chimeric DNA-binding proteins” (Massachusetts Institute of Technology)

Legend:
Zif268 zinc fingers 1-3 [1] = target: T1, Zif268 zinc fingers 1-3 (UniProt P08046 P08046:336-416); experiment: EMSA
[2] = target: GST-ZFHD1 (Zif268 fingers 1-2, GGRR linker, Oct-1 homeodomain) (synthetic chimera (mouse Zif268 / human …, UniProt P08046;P14859 P08046:333-390,P14859:378-439)); experiment: EMSA; 10 mM Hepes pH 7.9, 50 mM KCl, 0.5 mM EDTA, 30 C; apparent Kd; conditions: tags: N-terminal GST (pGEX2T)
[3] = target: Oct-1 POU domain (POU-specific domain and homeodomain) (UniProt P14859 P14859:280-438); experiment: as above
Zif268 zinc fingers 1-3 [4] = target: T1, Zif268 zinc fingers 1-3; experiment: as above

Oct-1 POU domain (POU-specific domain and homeodomain), sequence (P14859 280-438, one chain of several): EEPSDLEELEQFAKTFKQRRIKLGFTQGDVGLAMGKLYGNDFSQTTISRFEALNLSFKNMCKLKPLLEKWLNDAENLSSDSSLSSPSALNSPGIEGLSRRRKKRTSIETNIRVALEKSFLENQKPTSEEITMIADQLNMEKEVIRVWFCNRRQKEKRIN

B1: hybrid site probe TCATTATGGGCG (dsDNA)
DNA 1: CCTCGAGGTCATTATGGGCGCTAGGTACC
DNA 2: GGTACCTAGCGCCCATAATGACCTCGAGG
- binding result (Zif268 zinc fingers 1-3 [1]): no binding

B2: hybrid site probe TAATGATGGGCG (dsDNA)
DNA 1: CCTCGAGGCGCCCATCATTACTAGGTACC
DNA 2: GGTACCTAGTAATGATGGGCGCCTCGAGG
- Kd [2]: 0.84 nM

B3: Oct-1 octamer site probe (dsDNA)
DNA 1: CCTCGAGGTCATTTGCATACTAGGTACC
DNA 2: GGTACCTAGTATGCAAATGACCTCGAGG
- Kd [3]: 0.18 nM

B4: Zif268 site probe (dsDNA)
DNA 1: CCTCGAGGCGCCCACGCCTAGGTACC
DNA 2: GGTACCTAGGCGTGGGCGCCTCGAGG
- Kd (Zif268 zinc fingers 1-3 [4]): 0.33 nM
